From article PMC8273888

Columns and labels:
Assay in all cases: Kinetic parameters of hydrolysis of cephalosporin conjugates
Assay type in all cases: biochemical
Conditions in all cases: other: compound as substrate of IMP-28; pH 7.2; 25.0 °C
[1] = substrate: [H][C@]12SCC(CSCc3ccccc3)=C(C(=O)O)N1C(=O)[C@H]2NC(=O)Cc1ccccc1
[2] = substrate: [H][C@]12SCC(CSCCc3ccccc3)=C(C(=O)O)N1C(=O)[C@H]2NC(=O)Cc1ccccc1
[3] = substrate: [H][C@]12SCC(CS[C@@H](Cc3ccccc3)C(=O)O)=C(C(=O)O)N1C(=O)[C@H]2NC(=O)Cc1ccccc1
[4] = substrate: [H][C@]12SCC(CSC(C(=O)O)c3ccccc3)=C(C(=O)O)N1C(=O)[C@H]2NC(=O)Cc1ccccc1
[5] = substrate: [H][C@]12SCC(CS[C@H](Cc3ccccc3)C(=O)O)=C(C(=O)O)N1C(=O)[C@H]2NC(=O)Cc1ccccc1

B1: IMP-28 (Klebsiella oxytoca) (protein)
chain: ESLPDLKIERLDEGVYVHTSFEEVNGWGVVPKHGLVVLVNTEAYLIDTPFTAKDTEKLVTWFVGRGYKIKGSISSHFHSDSTGGIEWLNSQSIPTYASELTNELLKKDGKVQAKNSFGGVSYWLVKNKIEVFYPGPGHTPDNVVVWLPENRVLFGGCFVKPYGLGNLGDANLEAWPKSAKLLMSKYGKAKLVVPSHSEVGDASLLKRTLEHAVKGLNESKKPSKPSN
Km [1]: 20.5 ± 4 µM | kcat [1]: 10.8 s⁻¹ | kcat/Km [1]: 529000 M⁻¹ s⁻¹ | Km [2]: 83.3 ± 16 µM | kcat [2]: 6.12 s⁻¹ | kcat/Km [2]: 73000 M⁻¹ s⁻¹ | Km [3]: 175 ± 19 µM | kcat [3]: 41 s⁻¹ | kcat/Km [3]: 234000 M⁻¹ s⁻¹ | Km [4]: 129 ± 13 µM | kcat [4]: 0.386 s⁻¹ | kcat/Km [4]: 3000 M⁻¹ s⁻¹ | Km [5]: 249 ± 7 µM | kcat [5]: 2.83 s⁻¹ | kcat/Km [5]: 11000 M⁻¹ s⁻¹
